Assay results: paper doi:10.1101/2023.05.08.539884 (bioRxiv, 2023)
“And” between values parts separate entries of the source, which are not always exact repeats. Equal entries are not always repeated.

Target: UBE2A (UniProt P49459 1-152)
Experiment: ITC

- Kd: 2.8 µM and 2.58 µM
B1: UBR4_(4730-5183) (domain or fragment)
chain: AIQHPGTQVLIGTDSIPNLHKLEQVSSDEGIGTLAENLLEALREHPDVNKKIDAARRETRAEKKRMAMAMRQKALGTLGMTTNEKGQVVTKTALLKQMEELIEEPGLTCCICREGYKFQPTKVLGIYTFTKRVALEEMENKPRKQQGYSTVSHFNIVHYDCHLAAVRLARGREEWESAALQNANTKCNGLLPVWGPHVPESAFATCLARHNTYLQECTGQREPTYQLNIHDIKLLFLRFAMEQSFSADTGGGGRESNIHLIPYIIHTVLYVLNTTRATSREEKNLQGFLEQPKEKWVESAFEVDGPYYFTVLALHILPPEQWRATRVEILRRLLVTSQARAVAPGGATRLTDKAVKDYSAYRSSLLFWALVDLIYNMFKKVPTSNTEGGWSCSLAEYIRHNDMPIYEAADKALKTFQEEFMPVETFSEFLDVAGLLSEITDPESFLKDLLNSVP
